Our source for the abundance fitness values is the Human Domainome abundance scans (Beltran et al. 2025).

± gives the uncertainty stated by the source.

The data set in a line: abundance fitness (aPCA) (normalised: wild type 0, dead -1); higher = more abundant; growth selection in yeast, the domain comes from the species named. The conditions noted are these: Homo sapiens.
Consider “BAG family molecular chaperone regulator 3 D51C, O95817”, for which the abundance fitness is -0.48 ± 0.22.

As to “BAG family molecular chaperone regulator 3 D51F, O95817”, the abundance fitness was -0.234 ± 0.48.

Substance “BAG family molecular chaperone regulator 3 D51G, O95817” had an abundance fitness of -0.62 ± 0.19.

“BAG family molecular chaperone regulator 3 D51H, O95817” displayed an abundance fitness of -0.262 ± 0.42.

The substance “BAG family molecular chaperone regulator 3 D51K, O95817” came in with an abundance fitness of -0.037 ± 0.3.

Turning to “BAG family molecular chaperone regulator 3 D51L, O95817”, the abundance fitness was -0.859 ± 0.2.

In turn, “BAG family molecular chaperone regulator 3 D51M, O95817” registered an abundance fitness of -0.658 ± 0.36.

Regarding “BAG family molecular chaperone regulator 3 D51Q, O95817”, the abundance fitness was -0.602 ± 0.42.

Turning to “BAG family molecular chaperone regulator 3 D51R, O95817”, the abundance fitness is -0.568 ± 0.17.

With “BAG family molecular chaperone regulator 3 D51S, O95817”, the abundance fitness is -0.383 ± 0.14.

“BAG family molecular chaperone regulator 3 D51T, O95817”: the abundance fitness was 0.29 ± 0.25.

For the substance “BAG family molecular chaperone regulator 3 D51V, O95817”, the abundance fitness was -0.666 ± 0.12.

As for “BAG family molecular chaperone regulator 3 D51W, O95817”, the abundance fitness is -1.18 ± 0.23.

“BAG family molecular chaperone regulator 3 D51Y, O95817” gave an abundance fitness of -0.45 ± 0.4.

“BAG family molecular chaperone regulator 3 E27A, O95817” registered an abundance fitness of -0.617 ± 0.18.

“BAG family molecular chaperone regulator 3 E27C, O95817”: the abundance fitness is -0.789 ± 0.39.

Substance “BAG family molecular chaperone regulator 3 E27D, O95817” returned an abundance fitness of -0.472 ± 0.35.

“BAG family molecular chaperone regulator 3 E27G, O95817” displayed an abundance fitness of -0.54 ± 0.14.

As to “BAG family molecular chaperone regulator 3 E27K, O95817”, the abundance fitness is -0.42 ± 0.23.

“BAG family molecular chaperone regulator 3 E27L, O95817”: the abundance fitness is -0.912 ± 0.2.

“BAG family molecular chaperone regulator 3 E27M, O95817” gave an abundance fitness of -0.714 ± 0.19.

Consider “BAG family molecular chaperone regulator 3 E27N, O95817”, for which the abundance fitness is -0.889 ± 0.22.

“BAG family molecular chaperone regulator 3 E27P, O95817”: the abundance fitness was -0.836 ± 0.39.

Take “BAG family molecular chaperone regulator 3 E27Q, O95817”: the abundance fitness was -0.222 ± 0.3.

As for “BAG family molecular chaperone regulator 3 E27R, O95817”, the abundance fitness was -0.742 ± 0.15.

With “BAG family molecular chaperone regulator 3 E27S, O95817”, the abundance fitness is -0.596 ± 0.14.

In the case of “BAG family molecular chaperone regulator 3 E27T, O95817”, the abundance fitness is -0.555 ± 0.15.

For the substance “BAG family molecular chaperone regulator 3 E27V, O95817”, the abundance fitness was -0.96 ± 0.25.

“BAG family molecular chaperone regulator 3 E27W, O95817” came in with an abundance fitness of -0.988 ± 0.48.

“BAG family molecular chaperone regulator 3 E57A, O95817” came in with an abundance fitness of -0.317 ± 0.1.

The substance “BAG family molecular chaperone regulator 3 E57C, O95817” displayed an abundance fitness of -0.564 ± 0.15.

Take “BAG family molecular chaperone regulator 3 E57F, O95817”: the abundance fitness was -0.052 ± 0.28.

As for “BAG family molecular chaperone regulator 3 E57G, O95817”, the abundance fitness is -0.237 ± 0.12.

On to “BAG family molecular chaperone regulator 3 E57H, O95817”, for which the abundance fitness was -0.326 ± 0.38.

As for “BAG family molecular chaperone regulator 3 E57I, O95817”, the abundance fitness is -0.566 ± 0.36.

In turn, “BAG family molecular chaperone regulator 3 E57K, O95817” had an abundance fitness of -0.11 ± 0.24.

In turn, “BAG family molecular chaperone regulator 3 E57L, O95817” came in with an abundance fitness of -0.468 ± 0.094.

In turn, “BAG family molecular chaperone regulator 3 E57M, O95817” gave an abundance fitness of -0.186 ± 0.24.

The substance “BAG family molecular chaperone regulator 3 E57N, O95817” came in with an abundance fitness of 0.759 ± 0.22.

On to “BAG family molecular chaperone regulator 3 E57P, O95817”, for which the abundance fitness was -0.027 ± 0.16.

Substance “BAG family molecular chaperone regulator 3 E57Q, O95817” came in with an abundance fitness of -0.46 ± 0.33.

Consider “BAG family molecular chaperone regulator 3 E57R, O95817”, for which the abundance fitness was -0.119 ± 0.081.

Take “BAG family molecular chaperone regulator 3 E57S, O95817”: the abundance fitness is -0.001 ± 0.11.

“BAG family molecular chaperone regulator 3 E57T, O95817” yielded an abundance fitness of -0.118 ± 0.21.

For “BAG family molecular chaperone regulator 3 E57V, O95817”, the abundance fitness is -0.721 ± 0.21.

Consider “BAG family molecular chaperone regulator 3 E57W, O95817”, for which the abundance fitness is -0.423 ± 0.29.

Take “BAG family molecular chaperone regulator 3 E57Y, O95817”: the abundance fitness is -0.44 ± 0.13.

For “BAG family molecular chaperone regulator 3 F38A, O95817”, the abundance fitness is -0.181 ± 0.15.

In turn, “BAG family molecular chaperone regulator 3 F38D, O95817” registered an abundance fitness of -0.57 ± 0.14.

The substance “BAG family molecular chaperone regulator 3 F38E, O95817” had an abundance fitness of -0.356 ± 0.13.

“BAG family molecular chaperone regulator 3 F38G, O95817” displayed an abundance fitness of -0.503 ± 0.14.

In turn, “BAG family molecular chaperone regulator 3 F38H, O95817” had an abundance fitness of -0.014 ± 0.15.

Consider “BAG family molecular chaperone regulator 3 F38I, O95817”, for which the abundance fitness is -0.692 ± 0.34.

“BAG family molecular chaperone regulator 3 F38K, O95817” showed an abundance fitness of -0.31 ± 0.088.

As for “BAG family molecular chaperone regulator 3 F38L, O95817”, the abundance fitness amounted to 0.326 ± 0.072.

The substance “BAG family molecular chaperone regulator 3 F38M, O95817” gave an abundance fitness of 0.197 ± 0.14.

As to “BAG family molecular chaperone regulator 3 F38N, O95817”, the abundance fitness is -0.724 ± 0.46.

Substance “BAG family molecular chaperone regulator 3 F38Q, O95817” yielded an abundance fitness of 0.571 ± 0.22.

Turning to “BAG family molecular chaperone regulator 3 F38R, O95817”, the abundance fitness was -0.149 ± 0.1.

For the substance “BAG family molecular chaperone regulator 3 F38S, O95817”, the abundance fitness is -0.243 ± 0.069.

Consider “BAG family molecular chaperone regulator 3 F38T, O95817”, for which the abundance fitness is -0.622 ± 0.29.

The substance “BAG family molecular chaperone regulator 3 F38V, O95817” yielded an abundance fitness of -0.092 ± 0.14.

“BAG family molecular chaperone regulator 3 F38W, O95817” returned an abundance fitness of -0.665 ± 0.25.

As for “BAG family molecular chaperone regulator 3 F39A, O95817”, the abundance fitness was -0.89 ± 0.18.

“BAG family molecular chaperone regulator 3 F39E, O95817” came in with an abundance fitness of -0.154 ± 0.085.

“BAG family molecular chaperone regulator 3 F39G, O95817” came in with an abundance fitness of -0.436 ± 0.067.

The substance “BAG family molecular chaperone regulator 3 F39H, O95817” came in with an abundance fitness of -0.615 ± 0.39.

Take “BAG family molecular chaperone regulator 3 F39L, O95817”: the abundance fitness is -0.528 ± 0.14.

“BAG family molecular chaperone regulator 3 F39N, O95817” yielded an abundance fitness of -0.442 ± 0.29.

Substance “BAG family molecular chaperone regulator 3 F39P, O95817” gave an abundance fitness of -0.639 ± 0.19.

For the substance “BAG family molecular chaperone regulator 3 F39Q, O95817”, the abundance fitness was -0.633 ± 0.5.

The substance “BAG family molecular chaperone regulator 3 F39R, O95817” had an abundance fitness of -0.618 ± 0.068.

In turn, “BAG family molecular chaperone regulator 3 F39S, O95817” displayed an abundance fitness of -0.729 ± 0.19.

Take “BAG family molecular chaperone regulator 3 F39T, O95817”: the abundance fitness was -0.587 ± 0.26.

Substance “BAG family molecular chaperone regulator 3 F39V, O95817” had an abundance fitness of -0.754 ± 0.11.

The substance “BAG family molecular chaperone regulator 3 F39W, O95817” yielded an abundance fitness of -0.42 ± 0.19.

In the case of “BAG family molecular chaperone regulator 3 F39Y, O95817”, the abundance fitness is -0.244 ± 0.24.

In the case of “BAG family molecular chaperone regulator 3 G15C, O95817”, the abundance fitness was 0.649 ± 0.079.

With “BAG family molecular chaperone regulator 3 G15D, O95817”, the abundance fitness amounted to 1.2 ± 0.092.

Take “BAG family molecular chaperone regulator 3 G15E, O95817”: the abundance fitness was determined as 1 ± 0.094.

In turn, “BAG family molecular chaperone regulator 3 G15F, O95817” yielded an abundance fitness of 0.641 ± 0.083.
